Test results reported in US20210395354A1 (AMPSOURCE BIOPHARMA SHANGHAI, published 2021).

Tests used:
human NGF (his tag) [1] = target: T1, human NGF (his tag) (human, UniProt P01138 122-241, limits assumed); test: BLI (ForteBio Octet), human NGF (his tag) on Ni-NTA sensor
T1 construct: Captured on Ni-NTA sensors in the ForteBio Octet assay; also called hNGF; antigen; not shown: his tag
Procedure: (§1) The binding affinity constants of purified mouse monoclonal antibody #56 and #2 with antigens were determined by the bio film interference technique (fortebio octet Red & QK system, Pall company). […] After the kinetic fitting curve of affinity analysis, the affinity constant was calculated by analyzing the above data.

[2] = target: T2, human nerve growth factor (hNGF) (human, UniProt P01138 122-241); test: indirect ELISA on coated hNGF (0.2 µg/ml), detection with HRP anti-mouse IgG, OD 450 nm
T2 construct: also called human NGF
T2 sequence (P01138 122-241 limits assumed): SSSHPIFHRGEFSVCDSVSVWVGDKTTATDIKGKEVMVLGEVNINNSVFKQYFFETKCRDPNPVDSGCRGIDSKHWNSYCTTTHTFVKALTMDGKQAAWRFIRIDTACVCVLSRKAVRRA
Procedure: Indirect ELISA was used to determine the binding titers of purified mouse antibody #2, #56 and #98 to hNGF. Among them, each pore was coated with 100 μl 0.2 μg/ml hNGF (Corning company) and placed at 4° C. for 16-20 h. The PBS buffer in 96 well plate was sucked off, washed with PBST (pH 7.4, PBS containing 0.05% Tween 20) buffer once, then 200 μL/well PBST/1% skimmed milk powder was added, incubated at room temperature for 1 h and sealed. Remove the blocking solution, wash the plate with PBST buffer for 3 times, add PBST/1% skimmed milk powder to dilute to the appropriate concentration of anti-hngf mouse antibody to be tested, 100 μL/well, incubate at room temperature for 1.5 h. Remove the reaction system, wash the plate with PBST three times, and then use the HRP labeled Sheep anti mouse IgG polyclonal antibody (Jackson Laboratory) diluted with PBST/1% skimmed milk powder (dilution ratio 1:5000) at 50 μL/well as the detection antibody, and incubate at room temperature for 1 h. After 3 times of PBST washing, add 100 μL/well TMB and incubate at room temperature for 10-30 min. Add 50 μL/pore 0.2 M sulfuric acid to stop the reaction.

human NGF (his tag) [3] = target: T1, human NGF (his tag); test: BLI (ForteBio Octet), method of example 4
Procedure: as §1

[4] = target: T2, human nerve growth factor (hNGF); test: cell-based or functional assay

T1 sequence (P01138 122-241 limits assumed): as above

Binder	Kd (human NGF (his tag) [1]) [nM]	koff (human NGF (his tag) [1]) [s⁻¹]	kon (human NGF (his tag) [1]) [M⁻¹ s⁻¹]	EC50 (read off the curve) [2] [µg/mL]	Kd (human NGF (his tag) [3]) [nM]	koff (human NGF (his tag) [3]) [s⁻¹]	kon (human NGF (his tag) [3]) [M⁻¹ s⁻¹]	IC50 (read off the curve), NGF-dependent TF-1 cell proliferation [4] [µg/mL]
mouse monoclonal antibody #2 (antibody, mouse IgG1, V domains shown, also called Chen 2; antibody secreted by hybridoma A2) VH: QVQLQQSGPELARPGASVKLSCKASGYTFTDYWMQWVKQRPGQGLEWIGTIYPGDGYTRYIQKFKGRATLTADKSSSTAYMQLNSLASEDSAVYYCARRAAYYTMDYWGQGTSVTVSS VL: DIVMTQSHKFMSTSVGDRVSITCKASQDVNTAVAWYQQKPGQSPKLLIYWASTRHTGVPDRFTGSGSGTDYILTISSVQAEDLALYYCQQHYSSPWTFGGGTKLEIT	0.0159	2.92e-05	1.83e+06	~0.007	–	–	–	–
human mouse chimeric antibody AB5D1 (antibody, V domains shown) VH: QVQLQQSGPELARPGASVKLSCKASGYTFTDYWMQWVKQRPGQGLEWIGTIYPGDGYTRYIQKFKGRATLTADKSSSTAYMQLNSLASEDSAVYYCARRAAYYTMDYWGQGTSVTVSS VL: DIVMTQSHKFMSTSVGDRVSITCKASQDVNTAVAWYQQKPGQSPKLLIYWASTRHTGVPDRFTGSGSGTDYILTISSVQAEDLALYYCQQHYSSPWTFGGGTKLEIT	–	–	–	–	0.0106	1.55e-05	1.46e+06	–
humanized antibody AB5D6 (antibody, V domains shown, Humanized from #2 by surface remodeling) VH: QVQLQQSGPEVAKPGASVKLSCKASGYTFTDYWMQWVKQRPGQGLEWIGTIYPGDGYTRYIQKFKGRATLTADKSTSTAYMELNSLASEDSAVYYCARRAAYYTMDYWGQGTSVTVSS VL: DIVMTQSHKFMSTSVGDRVTITCKASQDVNTAVAWYQQKPGQSPKLLIYWASTRHTGVPDRFSGSGSGTDYILTISSVQAEDLALYYCQQHYSSPWTFGGGTKLEIT	–	–	–	–	0.0157	2.22e-05	1.41e+06	–
humanized antibody AB5C2 (antibody, V domains shown, Humanized from #56 by CDR transplantation) VH: QVQLQESGPGLVKPSETLSLTCTVSGFSLTGYGVNWVRQPPGKGLEWLGMIWADGDTDYNSALKSRVTISKDTSKNQFSLKLSSVTAADTARYYCARDSYYYGYNFFDVWGAGTTVTVSS VL: DIQMTQSPSSLSASVGDRVTITCRASQDISNYLNWYQQKPGKAPKLLIYYTSRLHSGVPSRFSGSGSGTDFTFTISSLQPEDIATYFCQQGNTLPRTFGGGTKVEIK	–	–	–	–	0.0013	2.16e-06	1.66e+06	~0.4
humanized antibody AB5C4 (antibody, V domains shown, Humanized from #56 by CDR transplantation) VH: QVQLQESGPGLVKPSETLSLTCTVSGFSLTGYGWGWVRQPPGKGLEWIGSIWADGDTYYNPSLKSRVTISVDTSKNQFSLKLSSVTAADTAVYYCARDSYYYGYNFFDVWGQGTMVTVSS VL: DIQMTQSPSSLSASVGDRVTITCQASQDISNYLNWYQQKPGKAPKLLIYYTSNLESGVPSRFSGSGSGTDFTFTISSLQPEDIATYYCQQGNTLPRTFGGGTKVEIK	–	–	–	–	0.0153	2.23e-05	1.46e+06	–
humanized antibody AB5C5 (antibody, V domains shown, Humanized from #56 by CDR transplantation) VH: QVQLQESGPGLVKPSETLSLTCTVSGFSLTGYGWGWVRQPPGKGLEWLGSIWADGDTYYNPSLKSRVTISVDTSKNQFSLKLSSVTAADTAVYYCARDSYYYGYNFFDVWGQGTMVTVSS VL: DIQMTQSPSSLSASVGDRVTITCQASQDISNYLNWYQQKPGKAPKLLIYYTSNLESGVPSRFSGSGSGTDFTFTISSLQPEDIATYFCQQGNTLPRTFGGGTKVEIK	–	–	–	–	0.0089	1.59e-05	1.78e+06	–
humanized antibody AB5C3 (antibody, V domains shown, Humanized from #56 by CDR transplantation) VH: QVQLQESGPGLVKPSETLSLTCTVSGFSLTGYGWGWIRQPPGKGLEWIGSIWADGDTYYNPSLKSRVTISVDTSKNQFSLKLSSVTAADTAVYYCARDSYYYGYNFFDVWGQGTMVTVSS VL: DIQMTQSPSSLSASVGDRVTITCQASQDISNYLNWYQQKPGKAPKLLIYYTSNLETGVPSRFSGSGSGTDFTFTISSLQPEDIATYYCQQGNTLPRTFGGGTKVEIK	–	–	–	–	0.00755	9.87e-06	1.31e+06	–
mouse monoclonal antibody #56 (antibody, mouse IgG1, V domains shown, also called Chen 56; antibody secreted by hybridoma A56) VH: QVQLKESGPGLVAPSQSLSITCTVSGFSLTGYGVNWVRQPPGKGLEWLGMIWADGDTDYNSALKSRLSISKDNSKSQVFLKVNNLQTDDTARYYCARDSYYYGYNFFDVWGAGTTVTVSS VL: DIQMTQTTSSLSASLGDRVTISCRASQDISNYLNWYQQKPEGTLKLLIYYTSRLHSGVPSRFSGSGSGTDYSLTISSLEQEDIATYFCQQGNTLPRTFGGGTKLEIK	0.0123	8.89e-06	723000	–	–	–	–	~0.4
human mouse chimeric antibody AB5C1 (antibody, V domains shown) VH: QVQLKESGPGLVAPSQSLSITCTVSGFSLTGYGVNWVRQPPGKGLEWLGMIWADGDTDYNSALKSRLSISKDNSKSQVFLKVNNLQTDDTARYYCARDSYYYGYNFFDVWGAGTTVTVSS VL: DIQMTQTTSSLSASLGDRVTISCRASQDISNYLNWYQQKPEGTLKLLIYYTSRLHSGVPSRFSGSGSGTDYSLTISSLEQEDIATYFCQQGNTLPRTFGGGTKLEIK	–	–	–	–	0.0299	5.4e-05	1.81e+06	~0.9
humanized antibody AB5C6 (antibody, V domains shown, Humanized from #56 by surface remodeling) VH: QVQLKESGPGLVAPSETLSITCTVSGFSLTGYGVNWVRQPPGKGLEWLGMIWADGDTDYNSALKSRLTISKDNSKSQVFLKVNNLQTDDTARYYCARDSYYYGYNFFDVWGAGTTVTVSS VL: DIQMTQSPSSLSASVGDRVTISCRASQDISNYLNWYQQKPEGTLKLLIYYTSRLHSGVPSRFSGSGSGTDYSLTISSLQQEDIATYFCQQGNTLPRTFGGGTKLEIK	–	–	–	–	0.0102	1.61e-05	1.59e+06	~0.4
humanized antibody AB5D2 (antibody, V domains shown, Humanized from #2 by CDR transplantation) VH: QVQLVQSGAEVKKPGASVKVSCKASGYTFTDYWMQWVKQRPGQGLEWIGTIYPGDGYTRYIQKFKGRVTMTRDTSTSTVYMELSSLRSEDSAVYYCARRAAYYTMDYWGQGTLVTVSS VL: DIQMTQSPSSLSASVGDRVTITCKASQDVNTAVAWYQQKPGKAPKLLIYWASTRHTGVPDRFTGSGSGTDYTLTISSLQPEDLALYYCQQHYSSPWTFGGGTKVEIT	–	–	–	–	0.00633	7.94e-06	1.25e+06	–
humanized antibody AB5D4 (antibody, V domains shown, Humanized from #2 by CDR transplantation) VH: QVQLVQSGAEVKKPGASVKVSCKASGYTFTDYWMHWVKQAPGQGLEWMGIIYPGDGYTSYAQKFQGRVTMTRDTSTSTVYMELSSLRSEDTAVYYCARRAAYYTMDYWGQGTLVTVSS VL: DIQMTQSPSSLSASVGDRVTITCRASQDVNTALAWYQQKPGKAPKLLLYWASRLETGVPSRFSGSGSGTDYTLTISSLQPEDFATYYCQQHYSSPWTFGGGTKVEIT	–	–	–	–	0.0182	3.25e-05	1.78e+06	–
humanized antibody AB5D3 (antibody, V domains shown, Humanized from #2 by CDR transplantation) VH: QVQLVQSGAEVKKPGASVKVSCKASGYTFTDYWMHWVRQAPGQGLEWMGIIYPGDGYTSYAQKFQGRVTMTRDTSTSTVYMELSSLRSEDTAVYYCARRAAYYTMDYWGQGTLVTVSS VL: DIQMTQSPSSLSASVGDRVTITCRASQDVNTALAWYQQKPGKAPKLLLYWASRLESGVPSRFSGSGSGTDYTLTISSLQPEDFATYYCQQHYSSPWTFGGGTKVEIT	–	–	–	–	0.0129	1.92e-05	1.49e+06	–
humanized antibody AB5D5 (antibody, V domains shown, Humanized from #2 by CDR transplantation) VH: QVQLVQSGAEVKKPGASVKVSCKASGYTFTDYWMHWVKQAPGQGLEWMGIIYPGDGYTSYIQKFQGRVTMTRDTSTSTVYMELSSLRSEDTAVYYCARRAAYYTMDYWGQGTLVTVSS VL: DIQMTQSPSSLSASVGDRVTITCRASQDVNTALAWYQQKPGKAPKLLLYWASRLETGVPSRFSGSGSGTDYTLTISSLQPEDLATYYCQQHYSSPWTFGGGTKVEIT	–	–	–	–	0.0154	1.89e-05	1.23e+06	–
